Consider two molecules from publication PMC9402538 (2022).

The assay addresses T1, APC (303–739) (UniProt P25054 303-739).
T1 chain: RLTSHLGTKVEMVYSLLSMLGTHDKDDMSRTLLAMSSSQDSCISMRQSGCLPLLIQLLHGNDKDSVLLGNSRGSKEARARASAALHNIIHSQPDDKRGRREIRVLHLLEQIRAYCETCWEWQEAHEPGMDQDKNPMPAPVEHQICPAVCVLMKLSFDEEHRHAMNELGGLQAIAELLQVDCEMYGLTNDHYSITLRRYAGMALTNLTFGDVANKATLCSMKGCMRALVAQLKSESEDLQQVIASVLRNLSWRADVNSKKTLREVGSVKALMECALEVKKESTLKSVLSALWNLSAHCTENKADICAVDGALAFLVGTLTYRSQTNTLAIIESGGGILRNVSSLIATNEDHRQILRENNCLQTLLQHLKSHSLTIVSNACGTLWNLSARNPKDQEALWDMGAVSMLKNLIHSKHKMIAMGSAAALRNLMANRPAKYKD
Kind of assay: ITC. For orientation: ITC needs no label: the signal is the heat of the interaction.

The star is where a group is joined. FITC = O=C1OC2(c3ccc(O)cc3Oc3cc(O)ccc32)c2ccc(NC(=S)*)cc21; Cbz = O=C(OCc1ccccc1)*

Consider Ac-GGGGEQLAINELISDGK(FITC)-NH2 [tracer 1 (Ac–GGGGEQLAINELISDGK[FITC]–NH2)], for which the Ka amounted to 1.73e+06 M⁻¹.
In the case of Cbz-AGESLYEK(FITC)-NH2 [tracer 7 (Z–AGESLYEK[FITC]–NH2)], the Ka turned out to be 1.29e+07 M⁻¹.
